Measurements as given in the MegaScale stability set (Tsuboyama et al. 2023).

B1: 2K2A (parent)
chain: ELREAFRLYDKEGNGYISTDVMREILAELDETLSSEDLDAMIDEIDADGSGTVDFEEFMGVMT

Variants of: B1
Experiment: folding stability dG (cDNA display proteolysis); higher = more stable
Details: PBS, room temperature

Folding stability dG [kcal/mol] of substitutions, site by site:
E12: N 1.52 | P 0.544 | Q 1.56 | R 0.846 | S 1.34 | T 1.32 | V 1.19 | W 1.48 | Y 1.2
G13: A 1.05 | C 1.5 | D 1.41 | E 1.1 | F 0.932 | H 1.15 | I 0.538 | K 1.14 | L 1.11 | M 1.23 | N 1.74 | P -0.146 | Q 1.26 | R 1.01 | S 1.18 | T 0.448 | V 0.792 | W 0.579 | Y 0.607
N14: A 1.55 | C 1.43 | D 1.3 | E 0.908 | F 1.7 | G 0.728 | H 1.63 | I 1.73 | K 2.09 | L 2.17 | M 1.78 | P -0.347 | Q 1.53 | R 2.11 | S 1.5 | T 1.74 | V 2.07 | W 1.38 | Y 1.6
G15: A 0.588 | C 1.1 | D 0.537 | E 0.488 | F 0.687 | H 0.458 | I 0.513 | K 0.271 | L 0.841 | M 0.662 | N 0.741 | P 0.347 | Q 0.45 | R 0.333 | S 0.464 | T 0.259 | V 0.459 | W 0.821 | Y 0.571
Y16: A 0.729 | C 0.627 | D -0.18 | E 0.315 | F 1.89 | G -0.095 | H 1.21 | I 0.893 | K 1.19 | L 0.96 | M 0.8 | N 0.623 | P -0.96 | Q 1.03 | R 1.15 | S 1.03 | T 1.05 | V 1.1 | W 2.34
I17: C 0.277 | F 0.818 | K -0.854 | L 1.36 | M 0.435 | R -0.847 | S -0.963 | T -0.998 | V 1.22 | W 0.006 | Y -0.493
S18: A 1.42 | C 1.29 | D 0.936 | E 0.834 | F 1.15 | G 1.52 | H 1.54 | I 0.865 | K 1.24 | L 1.41 | M 1.25 | N 1.16 | P 1.58 | Q 1.01 | R 1.59 | T 2.02 | V 0.765 | W 0.742 | Y 1.32
T19: A 1.32 | C 1.39 | D 0.211 | E 0.025 | F 2.18 | G 0.526 | H 1.01 | I 2.29 | K 1.67 | L 2.27 | M 1.91 | N 1.73 | P 0.762 | Q 0.688 | R 1.86 | S 1.23 | V 2.04 | W 1.4 | Y 2.03
D20: A 2.28 | C 1.9 | E 2.16 | F 1.89 | G 1.89 | H 2.05 | I 2.03 | K 2.4 | L 2.35 | M 2.25 | N 2.04 | P 1.15 | Q 2.33 | R 2.23 | S 2.26 | T 2.25 | V 2.14 | W 1.99 | Y 1.66
V21: A 2.17 | C 2 | D 1.95 | E 1.56 | F 1.41 | G 0.967 | H 1.77 | I 2.02 | K 2.04 | L 2.19 | M 2.06 | N 1.74 | Q 2.36 | R 1.88 | S 1.94 | T 1.92 | W 1.09 | Y 1.61
M22: A 0.924 | C 0.958 | D -0.77 | F 1.65 | H -0.985 | I 1.46 | L 1.97 | T 0.155 | V 1.4 | W 0.847 | Y 0.295
R23: A 0.182 | C 0.094 | F 0.124 | G -0.378 | H -0.034 | I 0.365 | K 1.69 | L 0.522 | M 0.457 | Q -0.482 | S -0.561 | T -0.478 | V -0.067 | W 0.731 | Y 0.595
E24: A 2.35 | C 2.6 | D 1.77 | F 2.32 | G 2.08 | H 2.14 | I 2.29 | K 2.6 | L 2.55 | M 2.52 | N 2.19 | P -0.167 | Q 2.48 | R 2.58 | S 2.3 | T 2.22 | V 2.23 | W 2.31 | Y 2.2
I25: A 0.872 | C 0.786 | F 1.53 | H -0.033 | K 0.177 | L 1.82 | M 1.31 | Q -0.758 | R 0 | T -0.61 | V 1.31 | W 0.943 | Y 0.879
L26: A 0.083 | C 0.479 | F 1.04 | I 1.45 | M 1.27 | R -0.879 | V 0.555 | W 0.837 | Y 0.295
A27: C 1.47 | D 0.222 | E 1.12 | F 1.73 | G 1.47 | H 1.94 | I 1.87 | K 2.21 | L 2.06 | M 2.03 | N 1.24 | P -0.602 | Q 1.93 | R 2.25 | S 1.87 | T 1.6 | V 1.59 | W 1.73 | Y 1.75
E28: A 2.46 | C 2.33 | D 1.78 | F 1.77 | G 2.28 | H 2.2 | I 1.85 | K 2.52 | L 2.25 | M 2.28 | N 2.22 | P -0.155 | Q 2.24 | R 2.59 | S 2.34 | T 2.03 | V 1.76 | W 1.89 | Y 1.83
L29: A 1.52 | C 2.18 | D 0.372 | E 0.559 | F 1.91 | G 0.955 | H 1.73 | I 1.64 | K 1.52 | M 2.15 | N 1.34 | Q 1.49 | R 2.12 | S 1.32 | T 1.15 | V 1.28 | W 2.15 | Y 1.92
D30: A 1.28 | C 1.97 | E 0.964 | F 2.19 | G 1.13 | H 2.08 | I 1.81 | K 1.45 | L 1.93 | M 1.95 | N 2.1 | P 0.553 | Q 1.38 | R 1.72 | S 1.4 | T 1.3 | V 1.55 | W 2.22 | Y 2.36
E31: A 2.24 | C 1.92 | D 1.97 | F 1.89 | G 2.17 | H 2.26 | I 1.93 | K 2.34 | L 2 | M 2.02 | N 2.15 | P 2.61 | Q 2.2 | R 2.41 | S 2.28 | T 2.12 | V 2.01 | W 1.98 | Y 2.01
T32: A 1.5 | C 1.73
